The values that follow are results of earlier work, collected in patent publication US20250049892A1, “SEMAGLUTIDE SOLUBLE MICRONEEDLE COMPOSITION AND PREPARATION METHOD THEREFOR” (GUANGZHOU NOVAKEN PHARM CO., LTD., priority 2022, published 2025).

For this series the following is noted: oral administration of semaglutide (with SNAC).

Turning to Semaglutide, the bioavailability is recorded as 0.9-1.2%.
